For one experiment, the target named is hDNMT1 BAH1 domain D768A (human, UniProt P26358 728-900, D768A). The experiment in a line: ITC.
A further experiment addresses hDNMT1 BAH1 domain Y775A (human, UniProt P26358 728-900, Y775A). The experiment in a line: ITC.

Among the data in paper PMC8093215 (2021) are Kd values, retold here.

Chain of hDNMT1 BAH1 domain D768A (P26358 728-900 D768A): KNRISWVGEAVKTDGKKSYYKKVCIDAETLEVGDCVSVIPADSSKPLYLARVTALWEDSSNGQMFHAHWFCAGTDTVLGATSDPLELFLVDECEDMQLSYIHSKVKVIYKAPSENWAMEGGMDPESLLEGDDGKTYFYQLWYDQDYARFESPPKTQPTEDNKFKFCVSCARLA
Chain of hDNMT1 BAH1 domain Y775A (P26358 728-900 Y775A): as the sequence (P26358 728-900 D768A) above, with A41D, Y48A counted along it

As to GAKRHRKVLRDNY (trimethyl-lysine at K20) [H4(14–25)K20me3 peptide], the values for the Kd with hDNMT1 BAH1 domain D768A and with hDNMT1 BAH1 domain Y775A were 10 µM and 361 µM, respectively.
